Consider 13 molecules from patent publication US20220298216A1 (SYRACUSE UNIVERSITY, published 2022).

Non-standard residues stand in square brackets, D forms with d. No end group written: not given here. NMeF = CN[C@@H](Cc1ccccc1)C(=O)O; NMeL = CN[C@@H](CC(C)C)C(=O)O; NMeS = CN[C@@H](CO)C(=O)O; Dap = NC[C@H](N)C(=O)O; Sar = CNCC(=O)O

T1: human ghrelin O-acyltransferase (hGOAT) (human, UniProt Q96T53 1-435, limits assumed)
T1 sequence (looked up): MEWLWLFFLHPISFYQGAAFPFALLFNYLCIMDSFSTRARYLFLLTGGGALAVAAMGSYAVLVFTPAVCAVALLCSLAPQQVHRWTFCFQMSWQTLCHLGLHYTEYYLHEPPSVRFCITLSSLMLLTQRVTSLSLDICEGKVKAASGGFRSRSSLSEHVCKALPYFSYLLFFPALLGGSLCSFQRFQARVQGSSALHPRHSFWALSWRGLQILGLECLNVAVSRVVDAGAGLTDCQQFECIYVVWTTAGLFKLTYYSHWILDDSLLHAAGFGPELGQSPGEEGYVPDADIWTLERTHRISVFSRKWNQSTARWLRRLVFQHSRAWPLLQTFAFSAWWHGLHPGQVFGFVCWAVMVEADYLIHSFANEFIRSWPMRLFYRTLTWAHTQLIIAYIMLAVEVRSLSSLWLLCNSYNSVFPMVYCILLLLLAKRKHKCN

B1: GN·MeSDapFL (peptide)
peptide: G[NMeS][Dap]FL
B2: GSDapFL (peptide)
peptide: GS[Dap]FL
B3: GSDapN·MeFL (peptide)
peptide: GS[Dap][NMeF]L
B4: GSDapFN·MeL (peptide)
peptide: GS[Dap]F[NMeL]
B5: SarSDapN·MeFN·MeL (peptide)
peptide: [Sar]S[Dap][NMeF][NMeL]
B6: SarSDapFL (peptide)
peptide: [Sar]S[Dap]FL

The target of the first test is T1, human ghrelin O-acyltransferase (hGOAT). Description: cell-based or functional assay.
SarSDapN·MeF (peptide) yielded an IC50 (µM), inhibitor potency against hGOAT of 1.5 µM. B1 registered an IC50 (µM), inhibitor potency against hGOAT of over 100 µM.

In turn, B2 gave an IC50 (µM), inhibitor potency against hGOAT of 0.14 µM. B3 gave an IC50 (µM), inhibitor potency against hGOAT of 0.097 µM. On the same count and under the same terms, the result for B4 reads 0.062 µM; that for B5, 6 µM; that for B6, 0.088 µM.

A further test concerns the target GOAT (human) (UniProt Q96T53). Briefly: GOAT inhibition assay.
In turn, Ac-SDapFL registered an IC50 of over 100000 nM. As for GSDap, the IC50 was over 100000 nM. On to GSDapF, for which the IC50 was found to be 1200 nM.

In turn, GS[Dap]FLS returned an IC50 of 74 nM.

SDapFL displayed a 50% inhibitory concentration (IC50) of over 100000 nM.

For the next test, the target named is ghrelin receptor (GHS-R1a) (Homo sapiens (Human)) (UniProt Q92847). Briefly: competition binding assay on the ghrelin receptor, IC50.
Chain of ghrelin receptor (GHS-R1a) (Homo sapiens (Human)) (Q92847 whole entry, form in doubt): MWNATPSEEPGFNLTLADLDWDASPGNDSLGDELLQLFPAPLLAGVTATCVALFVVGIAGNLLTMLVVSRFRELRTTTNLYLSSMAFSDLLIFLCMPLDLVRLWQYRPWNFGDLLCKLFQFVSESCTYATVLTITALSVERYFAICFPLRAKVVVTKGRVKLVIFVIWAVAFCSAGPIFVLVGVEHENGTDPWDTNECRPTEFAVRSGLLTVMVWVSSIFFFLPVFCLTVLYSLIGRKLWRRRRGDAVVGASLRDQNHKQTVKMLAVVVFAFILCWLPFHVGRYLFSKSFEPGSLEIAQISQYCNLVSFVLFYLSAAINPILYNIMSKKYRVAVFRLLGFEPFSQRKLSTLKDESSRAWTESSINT
On to “ghrelin-derived peptide with a sarcosine substitution at the G1 position”, for which the fold loss in binding affinity (IC50) against the unsubstituted peptide is over 25 fold.
